Experiments:
Assay in all cases: flow cytometry on 293T cells overexpressing EphA1-A8
[1] = molecular target: T1, EphA6 overexpressed on 293T cells (UniProt Q9UF33 23-1036, limits assumed)
T1 construct: whole, on cells
T1 sequence (looked up): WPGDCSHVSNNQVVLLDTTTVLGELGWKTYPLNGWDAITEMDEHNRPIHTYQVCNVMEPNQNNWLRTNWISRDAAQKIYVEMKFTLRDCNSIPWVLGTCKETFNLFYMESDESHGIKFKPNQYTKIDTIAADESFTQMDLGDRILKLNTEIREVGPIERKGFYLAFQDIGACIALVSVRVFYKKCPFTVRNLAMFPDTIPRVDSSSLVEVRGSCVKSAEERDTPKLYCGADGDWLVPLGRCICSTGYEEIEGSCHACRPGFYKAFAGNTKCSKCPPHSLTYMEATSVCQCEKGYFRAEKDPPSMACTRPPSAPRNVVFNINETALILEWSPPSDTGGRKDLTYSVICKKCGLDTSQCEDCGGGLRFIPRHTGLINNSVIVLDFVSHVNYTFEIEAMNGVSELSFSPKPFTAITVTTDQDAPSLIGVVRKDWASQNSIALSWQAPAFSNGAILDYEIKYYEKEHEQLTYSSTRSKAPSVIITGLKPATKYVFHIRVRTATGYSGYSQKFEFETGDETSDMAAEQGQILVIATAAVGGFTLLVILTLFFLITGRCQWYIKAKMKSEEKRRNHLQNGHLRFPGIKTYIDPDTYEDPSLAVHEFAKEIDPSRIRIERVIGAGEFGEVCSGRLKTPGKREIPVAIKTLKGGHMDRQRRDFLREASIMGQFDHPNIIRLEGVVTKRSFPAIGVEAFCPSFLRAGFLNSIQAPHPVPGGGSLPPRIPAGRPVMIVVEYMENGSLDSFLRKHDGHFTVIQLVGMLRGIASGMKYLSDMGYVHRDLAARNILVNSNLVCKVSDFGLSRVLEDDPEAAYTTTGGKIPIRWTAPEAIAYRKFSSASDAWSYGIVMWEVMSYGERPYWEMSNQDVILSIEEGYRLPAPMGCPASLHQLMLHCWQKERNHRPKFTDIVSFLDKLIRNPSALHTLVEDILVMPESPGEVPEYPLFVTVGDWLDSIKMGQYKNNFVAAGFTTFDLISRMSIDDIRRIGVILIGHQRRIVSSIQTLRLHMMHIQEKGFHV
Experimental: (§1) To detect the binding specificity of scFv, 293T cells were transformed with EphA1-A8 plasmids individually for overexpression of different EphA molecules. The cell line was freshly prepared and washed with FACS buffer (2% FBS in PBS). The cells were seeded at 1×10⁵ cells/well into a 96-well Ubottom plate and incubated with scFv for 1 h at 4° C. After the plate was washed with FACS buffer, the anti-hemagglutinin (HA) antibody was added for scFv binding detection (scFv was fused with a HA tag) and subsequently developed using an FITC-conjugated secondary antibody. Finally, the cell binding signal was analyzed using a FACS can flow cytometer.

[2] = molecular target: T2, EphA1 overexpressed on 293T cells (UniProt P21709 26-976, limits assumed)
T2 construct: whole, on cells
T2 sequence (looked up): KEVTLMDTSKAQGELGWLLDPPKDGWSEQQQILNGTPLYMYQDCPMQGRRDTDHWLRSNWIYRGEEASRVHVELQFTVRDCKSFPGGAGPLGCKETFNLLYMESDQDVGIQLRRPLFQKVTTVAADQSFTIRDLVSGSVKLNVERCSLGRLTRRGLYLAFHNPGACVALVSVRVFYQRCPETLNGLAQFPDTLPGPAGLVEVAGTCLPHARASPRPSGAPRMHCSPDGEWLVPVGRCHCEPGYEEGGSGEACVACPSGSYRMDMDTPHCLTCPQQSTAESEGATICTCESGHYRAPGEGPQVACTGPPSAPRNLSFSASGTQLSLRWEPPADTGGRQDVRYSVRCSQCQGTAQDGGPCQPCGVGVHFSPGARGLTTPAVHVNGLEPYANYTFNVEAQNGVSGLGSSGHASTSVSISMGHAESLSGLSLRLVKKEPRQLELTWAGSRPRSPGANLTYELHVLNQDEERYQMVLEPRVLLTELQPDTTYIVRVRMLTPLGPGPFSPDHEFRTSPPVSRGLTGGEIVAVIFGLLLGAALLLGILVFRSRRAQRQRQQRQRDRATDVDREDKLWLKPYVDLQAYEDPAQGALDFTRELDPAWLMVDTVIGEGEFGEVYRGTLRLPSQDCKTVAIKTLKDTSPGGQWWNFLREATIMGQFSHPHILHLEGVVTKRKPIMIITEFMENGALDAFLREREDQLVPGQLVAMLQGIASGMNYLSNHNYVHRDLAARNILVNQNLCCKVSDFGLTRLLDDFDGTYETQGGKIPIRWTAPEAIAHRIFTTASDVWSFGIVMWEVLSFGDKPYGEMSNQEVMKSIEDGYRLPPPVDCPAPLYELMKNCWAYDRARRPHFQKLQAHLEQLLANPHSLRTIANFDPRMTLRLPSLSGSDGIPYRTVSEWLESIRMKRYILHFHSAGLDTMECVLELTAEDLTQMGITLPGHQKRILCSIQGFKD
Experimental: as §1

[3] = molecular target: T3, EphA7 overexpressed on 293T cells (UniProt Q15375 28-998, limits assumed)
T3 construct: whole, on cells
T3 sequence (Q15375 28-998 limits assumed): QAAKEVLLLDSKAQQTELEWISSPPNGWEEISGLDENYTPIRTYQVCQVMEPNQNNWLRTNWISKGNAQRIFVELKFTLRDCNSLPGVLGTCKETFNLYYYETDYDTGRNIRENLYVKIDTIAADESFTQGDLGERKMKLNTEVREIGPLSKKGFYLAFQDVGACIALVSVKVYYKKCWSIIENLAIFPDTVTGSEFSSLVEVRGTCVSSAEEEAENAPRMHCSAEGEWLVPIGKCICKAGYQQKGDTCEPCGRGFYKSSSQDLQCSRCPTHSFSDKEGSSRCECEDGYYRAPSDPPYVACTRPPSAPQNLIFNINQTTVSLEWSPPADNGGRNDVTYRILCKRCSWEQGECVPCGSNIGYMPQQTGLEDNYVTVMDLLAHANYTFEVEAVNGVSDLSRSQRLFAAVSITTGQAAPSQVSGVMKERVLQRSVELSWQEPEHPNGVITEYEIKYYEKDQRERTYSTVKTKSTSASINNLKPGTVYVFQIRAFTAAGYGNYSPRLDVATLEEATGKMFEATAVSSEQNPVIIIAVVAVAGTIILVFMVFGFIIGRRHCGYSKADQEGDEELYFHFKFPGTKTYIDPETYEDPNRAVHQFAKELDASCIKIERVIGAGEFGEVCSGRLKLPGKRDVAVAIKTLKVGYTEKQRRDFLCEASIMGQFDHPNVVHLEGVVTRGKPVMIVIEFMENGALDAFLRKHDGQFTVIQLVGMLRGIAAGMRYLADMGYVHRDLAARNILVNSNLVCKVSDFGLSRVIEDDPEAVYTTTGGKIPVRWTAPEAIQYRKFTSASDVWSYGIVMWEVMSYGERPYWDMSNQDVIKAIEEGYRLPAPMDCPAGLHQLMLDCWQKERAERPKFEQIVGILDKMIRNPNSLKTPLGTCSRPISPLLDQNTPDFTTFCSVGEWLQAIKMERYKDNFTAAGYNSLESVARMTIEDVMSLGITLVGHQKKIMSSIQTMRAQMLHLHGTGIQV
Experimental: as §1

[4] = molecular target: T4, EphA5 overexpressed on 293T cells (UniProt P54756 25-1037, limits assumed)
T4 construct: whole, on cells
T4 sequence (P54756 25-1037 limits assumed): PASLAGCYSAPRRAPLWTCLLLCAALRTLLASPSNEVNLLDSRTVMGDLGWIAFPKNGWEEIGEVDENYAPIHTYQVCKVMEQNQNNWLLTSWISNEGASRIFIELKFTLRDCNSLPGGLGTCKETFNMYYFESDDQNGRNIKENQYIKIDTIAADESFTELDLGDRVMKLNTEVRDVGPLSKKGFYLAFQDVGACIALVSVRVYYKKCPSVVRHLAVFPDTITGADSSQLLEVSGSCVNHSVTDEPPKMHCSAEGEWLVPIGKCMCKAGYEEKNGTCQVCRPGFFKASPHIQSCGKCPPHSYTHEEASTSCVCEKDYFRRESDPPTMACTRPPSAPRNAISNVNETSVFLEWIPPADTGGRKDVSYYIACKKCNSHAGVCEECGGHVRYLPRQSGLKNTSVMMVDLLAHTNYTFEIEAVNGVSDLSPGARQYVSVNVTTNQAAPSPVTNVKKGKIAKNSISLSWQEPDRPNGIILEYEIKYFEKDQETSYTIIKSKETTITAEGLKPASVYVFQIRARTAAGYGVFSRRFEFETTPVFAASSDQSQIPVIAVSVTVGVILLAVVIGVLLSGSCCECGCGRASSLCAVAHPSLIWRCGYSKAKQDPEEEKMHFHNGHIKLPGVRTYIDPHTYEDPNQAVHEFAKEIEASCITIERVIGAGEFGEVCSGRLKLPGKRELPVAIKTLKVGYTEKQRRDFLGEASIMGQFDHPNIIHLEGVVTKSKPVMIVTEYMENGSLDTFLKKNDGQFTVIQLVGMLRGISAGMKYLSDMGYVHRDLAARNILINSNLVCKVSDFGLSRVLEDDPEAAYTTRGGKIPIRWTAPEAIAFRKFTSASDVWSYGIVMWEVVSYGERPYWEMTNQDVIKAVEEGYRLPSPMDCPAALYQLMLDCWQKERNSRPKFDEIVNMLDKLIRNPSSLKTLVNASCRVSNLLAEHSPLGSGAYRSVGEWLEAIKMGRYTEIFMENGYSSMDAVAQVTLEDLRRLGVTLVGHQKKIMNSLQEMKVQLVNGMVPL
Experimental: as §1

[5] = molecular target: T5, EphA4 overexpressed on 293T cells (UniProt P54764 20-986, limits assumed)
T5 construct: whole, on cells
T5 sequence (P54764 20-986 limits assumed): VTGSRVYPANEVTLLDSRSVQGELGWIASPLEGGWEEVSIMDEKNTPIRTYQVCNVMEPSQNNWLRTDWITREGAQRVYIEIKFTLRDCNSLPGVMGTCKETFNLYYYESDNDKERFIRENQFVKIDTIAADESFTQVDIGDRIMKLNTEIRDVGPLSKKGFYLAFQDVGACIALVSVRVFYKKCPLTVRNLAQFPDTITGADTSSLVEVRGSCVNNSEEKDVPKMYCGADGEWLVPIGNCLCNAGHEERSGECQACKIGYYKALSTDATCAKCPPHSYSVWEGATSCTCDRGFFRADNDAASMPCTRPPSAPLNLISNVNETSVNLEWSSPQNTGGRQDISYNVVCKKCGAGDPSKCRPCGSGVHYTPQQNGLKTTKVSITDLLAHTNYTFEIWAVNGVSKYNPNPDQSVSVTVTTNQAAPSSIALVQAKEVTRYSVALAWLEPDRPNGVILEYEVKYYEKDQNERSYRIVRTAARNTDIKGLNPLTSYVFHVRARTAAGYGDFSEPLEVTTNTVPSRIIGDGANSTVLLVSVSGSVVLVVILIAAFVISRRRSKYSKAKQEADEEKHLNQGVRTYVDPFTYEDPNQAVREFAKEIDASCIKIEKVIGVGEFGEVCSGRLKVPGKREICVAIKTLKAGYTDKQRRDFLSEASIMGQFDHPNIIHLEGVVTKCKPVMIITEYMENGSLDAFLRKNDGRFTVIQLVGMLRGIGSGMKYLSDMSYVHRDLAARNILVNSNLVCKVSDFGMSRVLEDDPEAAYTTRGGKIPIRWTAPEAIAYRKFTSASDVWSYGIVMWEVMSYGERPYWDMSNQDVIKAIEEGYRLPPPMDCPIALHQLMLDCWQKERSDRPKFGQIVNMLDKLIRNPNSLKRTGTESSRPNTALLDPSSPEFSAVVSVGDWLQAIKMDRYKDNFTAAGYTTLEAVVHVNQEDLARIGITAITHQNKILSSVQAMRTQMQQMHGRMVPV
Experimental: as §1

Measured: binding result

B1: Humanized scFv hSD5 (scFv)
scFv: LTQPPSVSVSPGQTVRITCSGSSGSYGWYQQKSPGQAPVTLIYDNDKRPSGIPERFSGSSSGSTSTLTISGVQAEDEADYYCGSADSSTYVGMFGGGTKLTVLGQSSRSSQVQLVESGGGLVQPGGSLRLSCAASGFTFSDYGMGWVRQAPGKGLEWVAGISAAGSFTPYGAAVKGRFTISRDNSKNTVYLQMNSLRAEDTAVYYCARIPSGYRAGEIYTWGQGTLVTVSS
notes: also called hSD5 scFv; Humanized scFv hSDS
no binding: [1] | [2] | [3] | [4] | [5]

Source: US20250340655A1, “EPHA2-TARGETING ANTIBODIES AND THEIR APPLICATIONS IN CANCER TREATMENT” (TAIPEI MEDICAL UNIVERSITY, priority 2022, published 2025)
